The subject of experiment [1] is Tie2 receptor downstream signaling in HUVEC cells. The experiment can be described thus: Western blot of AKT and ERK 42/44 phosphorylation (Tie2 downstream signaling) in HUVEC cells. Format: cell-based. To be noted: 60 nM anti-Ang2 antibody mixed with 40 nM Ang2, 10 minutes, FIG. 1. Here is the method:
Ang2 binds to the Tie2 receptor expressed on vascular endothelial cells and acts as a weak agonist or antagonist. Since the anti-Ang2 antibody developed in the present invention binds to Ang2 and forms a complex with Ang2-Tie2, thereby activating the Tie2 receptor and promoting downstream signaling, ERK and AKT phosphorylation experiments were performed to analyze the effect of anti-Ang2 antibodies on Tie2 downstream signaling using a cell-based assay. To compare the degree of activation of Tie2 downstream signaling, the same test was performed on the group treated with Ang2 (Sino Biological) and another Ang2 control antibody (Korean Patent Publication No. 10-2015-0136031).
Specifically, HUVEC (Lonza) cells (2×10^5) were cultured at 37° C. using EGM-2 (Lonza) medium, and when 80-90% confluency was observed, they were changed to 0.5% FBS Basal media (Lonza) for […]. Cultured at 37° C. for […]. 60 nM of anti-Ang2 antibody was mixed with 40 nM of Ang2 protein (Sino Biological) and left for 30 minutes. Then, the cultured cells were treated and incubated for another 10 minutes. For comparison, groups treated with 40 nM Ang2 and 40 nM Ang2+60 nM anti-Ang2 control antibody were prepared. […]
(In general: In western blotting, separated proteins are transferred to a membrane and probed.)

Experiment [2] relates to Tie2 downstream signaling (AKT phosphorylation) in HUVEC cells. The experiment can be described thus: Phospho-Akt1 (Ser473) sandwich ELISA of Tie2 downstream signaling in HUVEC cells. Format: cell-based. As for the experimental part:
To quantitatively analyze the effect of anti-Ang2 antibodies on Tie2 downstream signaling, the level of AKT phosphorylation was measured using ELISA.
HUVEC (Lonza) cells (2×10^5) were cultured at 37° C. using EGM-2 (Lonza) medium, and when 80-90% confluency was observed, they were changed to 0.5% FBS Basal media (Lonza) and cultured at 37° C. for 16 to 24 hours. 60 nM of anti-Ang2 antibody was mixed with 40 nM of Ang2 protein (Sino Biological) and left for 30 minutes. Then, the cultured cells were treated and incubated for another 10 minutes. For comparison, groups treated with 40 nM of Ang2, 40 nM of Ang2+60 nM of anti-Ang2 control antibody (h10D6-OPTI-67, U.S. Pat. No. 10,934,350) were prepared. The cells were washed with PBS, treated with the lysis buffer, centrifuged at 13,000 rpm for 15 minutes, and the supernatant was recovered to obtain a cell lysate.
For ELISA, 50 μL of PathScan®Phospho-Akt1 (Ser473) Sandwich ELISA Antibody Pair (Cell signaling) capture antibody diluted 1:100 was added to a 96 well ps half area plate (Greiner cio-one) and coated. Then, the plate was washed four times with PBST (Phosphate Buffer Saline containing 0.05% (v/v) Tween-20) and then blocked with PBST containing 1% (v/v) skim milk at 37° C. for […]. […] Afterwards, 50 μL of Stop solution was added to stop the reaction, and the OD450 value was measured on a plate reader (BioTek).
For orientation: An ELISA detects its analyte on a solid surface through an enzyme-linked reagent.

B1: 1D3: mouse anti-Ang2 monoclonal antibody; CDRs SEQ ID NO: 18-23, VH SEQ ID NO: 24, VL SEQ ID NO: 25 (antibody, V domains shown)
VH: DVQLQESGPGLVKPSQSLSLTCTVTGYSITSDYGWNWIRQFPGNKLEWMGYISYSGTTSYNPSLKSRISITRDTSKNQFFLQLNSVTTEDTATYYCARSEGTGFYAMDYWGQGTSVTVSSAKTTPPKLY
VL: SIVMTQTPKFLLVSAGDRVTIICKASQSVSNDVAWYQQKPGQSPKLLIYYASNRYTGVPDRFTGSGYGTDFTFTISTVQAEDLAVYFCQQDYSSPTFGGGTKLEIKRA
modifications: VH; VL
B1: the “AKT and ERK activation signals (western blot) compared to the negative control group” value in experiment [1] was “showed AKT and ERK activation signals”. In addition, the “Order of AKT phosphorylation curves in FIG. 2, from the curve with the highest value” in experiment [2] (HUVEC cells together with Ang2, printed order 1D3, 2C8, 1A9, 1H10, control 67 clone) was “highest”. Moreover, in experiment [2] (HUVEC cells, antibody together with 40 nM Ang2, OD450, FIG. 2), the “Tie2 downstream signal (AKT phosphorylation ELISA) compared to previously known control antibodies” value was “significantly stronger Tie2 downstream signal”.
